This assay concerns BAP1 strain of E. coli. The experiment in a line: Dipeptide production by Pro-CATTe A domain substitution constructs co-expressed with Phe-ATE, quantified by HPLC. The class given is cell-based. Conditions: BAP1 E. coli with Phe-ATE plasmid, grown 24 hours in 10 mL M9, absorbance at 214 nm; for D-Phe-L-Leu produced: upstream site X. An excerpt: The Phe-ATE/Pro-CAT NRPS system originally used by Belshaw et al comprises the first two modules from the NRPS pathway involved in the biosynthesis of tyrocidine in B. brevis (Belshaw et al. 1999). This two-enzyme system was used to infer stringent acceptor site specificity of the C domain within Pro-CAT that precluded incorporation of L-Leu and L-Phe substrates (Belshaw et al. 1999). An A domain substitution plasmid was made based on pET28a containing the C domain from Pro-CAT, restriction sites to insert alternative A domains, and the T-Te domains from SrfAC (SEQ ID NO: 108). […] The Pro specific A domain from Pro-CAT and five additional A domains were selected to insert into the A domain substitution construct. The five additional domains are represented by SEQ ID NOs: 109, 111, 113, 115, 117, 119, and included the Leu specific A domain from SrfAC, three additional Leu specific A domains and a Phe specific A domain.
The DNA sequences of SEQ ID NOs: 109, 111, 113, 115, 117, 119, were digested using NheI and NotI, then ligated into the compatible SpeI and NotI restriction sites of the vector pET28:ProC-TTe (SEQ ID NO: 108). The resulting Pro-CATTe constructs were transformed into a BAP1 strain of E. coli (Pfeifer et al. 2001) along with a second plasmid containing Phe-ATE (SEQ ID NO: 121). The strains were grown for 24 hours in 10 mL of M9, extracted and analysed using established protocols (Gruenewald et al. 2004). The production of dipeptides was quantified using HPLC and absorbance at 214 nm (FIG. 13), and confirmed using mass spectrometry.

B1: A domain from TycC6: Pro-CATTe construct with the Leu specific A domain from the sixth module of TycC substituted (protein)
chain: LAGHLQQIADCVANNPHIRLGEIDMLLPEEKQQILAGFNDTAVSYALDKTLHQLFEEQVDKTPDQAALLFSEQSLTYSELNERANRLARVLRAKGVGPDRLVAIMAERSPEMVIGILGILKAGGAYVPVDPGYPQERIQYLLEDSNAALLLSQAHLLPLLAQVSSELPECLDLNAELDAGLSGSNLPAVNQPTDLAYVIYTSGTTGKPKGVMIPHQGIVNCLQWRRDEYGFGPSDKALQVFSFAFDGFVASLFAPLLGGATCVLPQEAAAKDPVALKKLMAATEVTHYYGVPSLFQAILDCSTTTDFNQLRCVTLGGEKLPVQLVQKTKEKHPAIEINNEYGPTENSVVTTISRSIEAGQAITIGRPLANVQVYIVDEQHHLQPIGVVGELCIGGAGLARGYLNKPELTAEKFVANPFRPGERMYKTGDLVKWRTDGTIEYIGRADEQVKVRGYRIEIGEIESAVLAYQGIDQAVVVARDDDATAGSYLCAYFVAATAVSVSGLRSHLAKELPAYMIPSYFVELDQLPLSANGKVDRKALPKPQ
Turning to B1, the D-Phe-L-Leu produced is on record as 3.06 mg/L.

B2: control Pro A domain substitution strain: Pro-CATTe construct carrying the Pro specific A domain from Pro-CAT (TycB module 1), control substitution (protein)
chain: LAGHLQQIADCVANNSGVELCQIPLLTEAETSQLLAKRTETAADYPAATMHELFSRQAEKTPEQVAVVFADQHLTYRELDEKSNQLARFLRKKGIGTGSLVGTLLDRSLDMIVGILGVLKAGGAFVPIDPELPAERIAYMLTHSRVPLVVTQNHLRAKVTTPTETIDINTAVIGEESRAPIESLNQPHDLFYIIYTSGTTGQPKGVMLEHRNMANLMHFTFDQTNIAFHEKVLQYTTCSFDVCYQEIFSTLLSGGQLYLITNELRRHVEKLFAFIQEKQISILSLPVSFLKFIFNEQDYAQSFPRCVKHIITAGEQLVVTHELQKYLRQHRVFLHNHYGPSETHVVTTCTMDPGQAIPELPPIGKPISNTGIYILDEGLQLKPEGIVGELYISGANVGRGYLHQPELTAEKFLDNPYQPGERMYRTGDLALWLPDGQLEFLGRIDHQVKIRGHRIELGEIESRLLNHPAIKEAVVIDRADETGGKFLCAYVVLQKALSDEEMRAYLAQALPEYMIPSFFVTLERIPVTPNGKTDRRALPKPE
In the case of B2, the “D-Phe-L-Pro DKP synthesised” value is listed as 7.8 mg/L.

B3: A domain from SrfAC: Pro-CATTe construct with the Leu specific A domain from SrfAC substituted (protein)
chain: LAGHLQQIADCVANNPDQPVSTINLVDDREREFLLTGLNPPAQAHETKPLTYWFKEAVNANPDAPALTYSGQTLSYRELDEEANRIARRLQKHGAGKGSVVALYTKRSLELVIGILGVLKAGAAYLPVDPKLPEDRISYMLADSAAACLLTHQEMKEQAAELPYTGTTLFIDDQTRFEEQASDPATAIDPNDPAYIMYTSGTTGKPKGNITTHANIQGLVKHVDYMAFSDQDTFLSVSNYAFDAFTFDFYASMLNAARLIIADEHTLLDTERLTDLILQENVNVMFATTALFNLLTDAGEDWMKGLRCILFGGERASVPHVRKALRIMGPGKLINCYGPTEGTVFATAHVVHDLPDSISSLPIGKPISNASVYILNEQSQLQPFGAVGELCISGMGVSKGYVNRADLTKEKFIENPFKPGETLYRTGDLARWLPDGTIEYAGRIDDQVKIRGHRIELEEIEKQLQEYPGVKDAVVVADRHESGDASINAYLVNRTQLSAEDVKAHLKKQLPAYMVPQTFTFLDELPLTTNGKVNKRLLPKPD
The molecule B3 yielded a D-Phe-L-Leu produced of 1.81 mg/L.

The values are drawn from patent US20220348934A1, “NON-RIBOSOMAL PEPTIDES AND SYNTHETASES AND METHODS OF PREPARATION AND USE THEREOF” (VICTORIA LINK LIMITED, priority 2019, published 2022).
